A word on the EC50: it is the concentration at which the effect is half-maximal.

Consider 4 substances from patent US20240124563A1.

Assay [1] concerns the target human MSLN-R1-his protein (human) (UniProt Q13421). Description: ELISA, coated antigen, 100 nM antibody.
Assay [2] has as its target monkey MSLN full-length protein on HEK293T cells (monkey). Kind of assay: FACS, HEK293T-monkey MSLN cells. On the technique in general: A flow cytometer gives signals particle by particle.
The target is the same in assay [3]. Description: FACS, HEK293T-monkey-MSLN cells, antibody 100 nM.
Assay [4] shares this target. Description: FACS, HEK293T-monkey-MSLN cells, antibody 0.8 nM.
Assay [5] shares this target. Kind of assay: FACS, HEK293T-monkey-MSLN cells, antibody 4 nM.
Assay [6] shares this target. Kind of assay: FACS, HEK293T-monkey-MSLN cells, antibody 0.032 nM.
Assay [7] has the same target. Description: FACS, HEK293T-monkey-MSLN cells, antibody 0.16 nM.
The target is the same in assay [8]. Kind of assay: FACS, HEK293T-monkey-MSLN cells, antibody 20 nM.
Assay [9] has the same target. Description: FACS, HEK293T-monkey-MSLN cells, antibody 0.00128 nM.
Assay [10] has the same target. Description: FACS, HEK293T-monkey-MSLN cells, antibody 0.0064 nM.
The target of assay [11] is human MSLN-R3-rFc protein (human) (UniProt Q13421). Kind of assay: ELISA, antibody 1 nM.
For assay [12] the target is unchanged. Kind of assay: ELISA, antibody 100 nM. (In general: In an ELISA, binding on a coated surface is turned into a signal by an enzyme label.)
Assay [13] shares this target. Description: ELISA, antibody 0.0064 nM.
Assay [14] shares this target. Description: ELISA, antibody 20 nM.
Assay [15] has the same target. Description: ELISA, antibody 4 nM.
Assay [16] deals with human MSLN-FL-his protein (human) (UniProt Q13421). Description: ELISA, coated antigen, 0.2 nM antibody.
Assay [17] addresses human MSLN-R2-his protein (human) (UniProt Q13421). Kind of assay: ELISA, coated antigen, 100 nM antibody.
For assay [18], the target named is human MSLN-FL-his protein (human) (UniProt Q13421). Kind of assay: ELISA, coated antigen, 20 nM antibody.

Chain of human MSLN-R1-his protein (human) (Q13421 other isoform, or with tags, fused parts or gaps): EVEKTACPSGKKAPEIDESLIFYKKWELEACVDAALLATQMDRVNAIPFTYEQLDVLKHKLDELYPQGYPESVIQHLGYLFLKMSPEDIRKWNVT
Chain of human MSLN-FL-his protein (human) (Q13421 other isoform, or with tags, fused parts or gaps): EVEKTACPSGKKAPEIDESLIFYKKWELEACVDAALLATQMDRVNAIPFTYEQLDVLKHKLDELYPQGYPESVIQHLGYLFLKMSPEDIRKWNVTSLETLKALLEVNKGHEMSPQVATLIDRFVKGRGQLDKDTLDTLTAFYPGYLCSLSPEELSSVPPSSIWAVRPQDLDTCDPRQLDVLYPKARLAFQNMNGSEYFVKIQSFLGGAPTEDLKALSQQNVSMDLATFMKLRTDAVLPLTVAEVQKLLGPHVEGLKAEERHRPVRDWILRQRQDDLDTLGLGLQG
Chain of human MSLN-R2-his protein (human) (Q13421 other isoform, or with tags, fused parts or gaps): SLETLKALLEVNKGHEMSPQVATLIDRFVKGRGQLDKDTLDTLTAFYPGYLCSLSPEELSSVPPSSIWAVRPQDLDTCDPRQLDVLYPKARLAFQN

“Tab108 (YP218, scFv-hIgG1 Fc) (Fc fusion)” displayed an OD450 nm in assay [1] of 0.12 OD450 nm. Also, in assay [2], the EC50 amounted to 0.83 nM and the Max MFI amounted to 4240.

Turning to “Tab131 (m912, scFv-hIgG1 Fc) (Fc fusion)”, the FACS signal (MFI) came out at 87 in assay [3]; 87 in assay [4]; 86 in assay [5]; 106 in [6]; 83 in assay [7]; 85 in [8]. For the same substance, the FACS signal (MFI) in assay [9] came to 93; in assay [10] it was 85.

In the case of “anti-human MSLN antibody (purchased from Acro, Cat. No. MSN-M30)”, the OD450 nm in [11] turned out to be 0.11; in [12], 1.11; in assay [13] it was 0.16; in assay [14] it was 0.86; in assay [15] it was 0.23.

Take hIgG1 (IgG control) (antibody): the OD450 nm is 0.24 OD450 nm in [16], 0.2 OD450 nm in assay [1], 0.16 OD450 nm in assay [17] and 0.28 OD450 nm in assay [18].
